Experimental findings from paper PMC3976055 (2014) are described below.

Assay [1] concerns the target T1, Rpt5 C-domain (UniProt P33297 350-434).
T1 chain: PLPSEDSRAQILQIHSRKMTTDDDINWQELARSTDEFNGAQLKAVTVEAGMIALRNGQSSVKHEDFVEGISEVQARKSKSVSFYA
The assay can be described thus: BLI. A general note: In BLI a coated tip is dipped into the sample, and binding shifts an interference pattern.

Assay [2] deals with T1, Rpt5 C-domain. The assay is described as follows: BLI.

B1: Nas2ND (domain or fragment)
chain: NDLNHLLQRSHVLLNQHFDNMNVKSNQDARRNNDDQAIQYTIPFAFISEVVPGSPSDKADIKVDDKLISIGNVHAANHSKLQNIQMVVMKNEDRPLPVLLLREGQILKTSLTPSRNWNGRGLLGCRIQEL
The term Kd denotes the concentration at which binding is half-saturated. Read a low Kd as a tighter complex. The koff is the rate constant with which the complex falls apart. The molecule B1 came in with a dissociation constant Kd in assay [1] of 3.4 µM. This molecule also had a koff in assay [2] of 0.26 s⁻¹.

B2: Nas2LND (domain or fragment)
chain: GPLTRRASVGSQAIQYTIPFAFISEVVPGSPSDKADIKVDDKLISIGNVHAANHSKLQNIQMVVMKNEDRPLPVLLLREGQILKTSLTPSRNWNGRGLLGCRIQEL
B2 came in with a Kd in assay [1] of 8.5 µM. This molecule showed a koff in assay [2] of 0.39 s⁻¹.

B3: Nas2 (natural protein)
chain: MEEEELSKLLANVKIDPSLTSRISQIDSFKLSELMVLKTDIETQLEAYFSVLEQQGIGMDSALVTPDGYPRSDVDVLQVTMIRKNVNMLKNDLNHLLQRSHVLLNQHFDNMNVKSNQDARRNNDDQAIQYTIPFAFISEVVPGSPSDKADIKVDDKLISIGNVHAANHSKLQNIQMVVMKNEDRPLPVLLLREGQILKTSLTPSRNWNGRGLLGCRIQEL
Turning to B3, the affinity in assay [1], expressed as Kd, was 1.4 µM. The molecule also came in with a koff in assay [2] of 0.013 s⁻¹.
